Experimental findings from US20240301061A1 (BEIGENE SWITZERLAND, published 2024) are described below.

The chains are these.
T1: human claudin 6 (CLDN6) (human, UniProt P56747 1-220)
T1 construct: also called human CLDN6; hCLDN6
T1 sequence: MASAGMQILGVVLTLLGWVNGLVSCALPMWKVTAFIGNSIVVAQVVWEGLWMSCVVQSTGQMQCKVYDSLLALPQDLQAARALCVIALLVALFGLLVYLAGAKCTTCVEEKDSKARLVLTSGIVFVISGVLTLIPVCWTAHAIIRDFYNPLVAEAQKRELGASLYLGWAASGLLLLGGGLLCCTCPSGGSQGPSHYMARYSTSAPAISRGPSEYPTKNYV

B1: BG87P-m1 (antibody, V domains shown)
VH: QIQLQQSGPELVKPGASVKISCKASGYSFTDYHINWVKQRPGQGLEWIGWIYPGSGYTKYNEKFKVKATLTVDTSSSTAYMHLTSLTSEDSAVYFCARSGIYHYVSSYYFEHWGQGTTLTVSS
VL: DIVMTQSHTFMSTSVGDRVSITCKASQDVGTAVAWYQQKPGQSPKLLIYWASTRHTGVPDRFTGSGSGTDFTLTISNVQSEDLADYFCQQYSSYTFGGGTKLEIK
notes: PTM removal variant of chBG87P
B2: BG87P-m2 (antibody, V domains shown)
VH: QIQLQQSGPELVKPGASVKISCKASGYSFTDYHINWVKQRPGQGLEWIGWIYPGSGYTKYNEKFKVKATLTVDTSSSTAYMHLTSLTSEDSAVYFCARSGIYHYVSSYYFQHWGQGTTLTVSS
VL: DIVMTQSHTFMSTSVGDRVSITCKASQDVGTAVAWYQQKPGQSPKLLIYWASTRHTGVPDRFTGSGSGTDFTLTISNVQSEDLADYFCQQYSSYTFGGGTKLEIK
notes: as for B1
B3: BG87P-Bz0 (antibody, V domains shown)
VH: QIQLVQSGAEVKKPGASVKVSCKASGYSFTDYHINWVRQAPGQRLEWMGWIYPGSGYTKYNEKFKVRVTLTVDTSASTAYMELSSLRSEDTAVYFCARSGIYHYVSSYYFDHWGKGTTVTVSS
VL: DIQMTQSPSTLSASVGDRVTITCKASQDVGTAVAWYQQKPGKSPKLLIYWASTRHTGVPSRFSGSGSGTEFTLTISSVQPDDFATYFCQQYSSYTFGGGTKVEIK
notes: Humanized, all back mutations; also called BG87P-B20; BG87-Bz0
B4: BG87P-Bz1 (antibody, V domains shown)
VH: QVQLVQSGAEVKKPGASVKVSCKASGYSFTDYHINWVRQAPGQRLEWMGWIYPGSGYTKYNEKFKVRVTLTVDTSASTAYMELSSLRSEDTAVYFCARSGIYHYVSSYYFDHWGKGTTVTVSS
VL: DIQMTQSPSTLSASVGDRVTITCKASQDVGTAVAWYQQKPGKSPKLLIYWASTRHTGVPSRFSGSGSGTEFTLTISSVQPDDFATYFCQQYSSYTFGGGTKVEIK
B5: BG87P-Bz2 (antibody, V domains shown)
VH: QIQLVQSGAEVKKPGASVKVSCKASGYTFTDYHINWVRQAPGQRLEWMGWIYPGSGYTKYNEKFKVRVTLTVDTSASTAYMELSSLRSEDTAVYFCARSGIYHYVSSYYFDHWGKGTTVTVSS
VL: DIQMTQSPSTLSASVGDRVTITCKASQDVGTAVAWYQQKPGKSPKLLIYWASTRHTGVPSRFSGSGSGTEFTLTISSVQPDDFATYFCQQYSSYTFGGGTKVEIK
B6: BG87P-m6 (antibody, V domains shown)
VH: QIQLVQSGAEVKKPGASVKVSCKASGYSFTDYHINWVRQAPGQRLEWMGWIYPGSGYTKYNEKFKVRVTLTVDTSASTAYMELSSLRSEDTAVYFCARSGIYHYVSSYYFQHWGKGTTVTVSS
VL: DIQMTQSPSTLSASVGDRVTITCKASQDVGTAVAWYQQKPGKSPKLLIYWASTRHTGVPSRFSGSGSGTEFTLTISSVQPDDFATYFCQQYSSYTFGGGTKVEIK
notes: PTM removal variant of BG87P-Bz0
B7: BG87P-m5 (antibody, V domains shown)
VH: QIQLVQSGAEVKKPGASVKVSCKASGYSFTDYHINWVRQAPGQRLEWMGWIYPGSGYTKYNEKFKVRVTLTVDTSASTAYMELSSLRSEDTAVYFCARSGIYHYVSSYYFEHWGKGTTVTVSS
VL: DIQMTQSPSTLSASVGDRVTITCKASQDVGTAVAWYQQKPGKSPKLLIYWASTRHTGVPSRFSGSGSGTEFTLTISSVQPDDFATYFCQQYSSYTFGGGTKVEIK
notes: as for B6
B8: BG87P-Bz5 (antibody, V domains shown)
VH: QIQLVQSGAEVKKPGASVKVSCKASGYSFTDYHINWVRQAPGQRLEWMGWIYPGSGYTKYNEKFKVRVTLTVDTSASTAYMELSSLRSEDTAVYYCARSGIYHYVSSYYFDHWGKGTTVTVSS
VL: DIQMTQSPSTLSASVGDRVTITCKASQDVGTAVAWYQQKPGKSPKLLIYWASTRHTGVPSRFSGSGSGTEFTLTISSVQPDDFATYFCQQYSSYTFGGGTKVEIK
notes: also called BG87P-B25
B9: BG87P-Bz7 (antibody, V domains shown)
VH: QIQLVQSGAEVKKPGASVKVSCKASGYSFTDYHINWVRQAPGQRLEWMGWIYPGSGYTKYNEKFKVRVTLTVDTSASTAYMELSSLRSEDTAVYFCARSGIYHYVSSYYFDHWGKGTTVTVSS
VL: DIQMTQSPSTLSASVGDRVTITCKASQDVGTAVAWYQQKPGKSPKLLIYWASTRHTGVPSRFSGSGSGTEFTLTISSLQPDDFATYFCQQYSSYTFGGGTKVEIK
notes: also called BG87P-B27
B10: BG87P-m7 (antibody, V domains shown)
VH: QIQLVQSGAEVKKPGASVKVSCKASGYSFTDYHINWVRQAPGQRLEWMGWIYPGSGYTKYNEKFKGRVTLTVDTSASTAYMELSSLRSEDTAVYFCARSGIYHYVSSYYFDHWGKGTTVTVSS
VL: DIQMTQSPSTLSASVGDRVTITCKASQDVGTAVAWYQQKPGKSPKLLIYWASTRHTGVPSRFSGSGSGTEFTLTISSVQPDDFATYFCQQYSSYTFGGGTKVEIK
notes: as for B6
B11: BG87P-Bz3 (antibody, V domains shown)
VH: QIQLVQSGAEVKKPGASVKVSCKASGYSFTDYHINWVRQAPGQRLEWMGWIYPGSGYTKYNEKFKVRVTITVDTSASTAYMELSSLRSEDTAVYFCARSGIYHYVSSYYFDHWGKGTTVTVSS
VL: DIQMTQSPSTLSASVGDRVTITCKASQDVGTAVAWYQQKPGKSPKLLIYWASTRHTGVPSRFSGSGSGTEFTLTISSVQPDDFATYFCQQYSSYTFGGGTKVEIK
notes: also called BG87P-B23
B12: BG87P-Bz8 (antibody, V domains shown)
VH: QIQLVQSGAEVKKPGASVKVSCKASGYSFTDYHINWVRQAPGQRLEWMGWIYPGSGYTKYNEKFKVRVTLTVDTSASTAYMELSSLRSEDTAVYFCARSGIYHYVSSYYFDHWGKGTTVTVSS
VL: DIQMTQSPSTLSASVGDRVTITCKASQDVGTAVAWYQQKPGKSPKLLIYWASTRHTGVPSRFSGSGSGTEFTLTISSVQPDDFATYYCQQYSSYTFGGGTKVEIK
B13: BG87P-Bz4 (antibody, V domains shown)
VH: QIQLVQSGAEVKKPGASVKVSCKASGYSFTDYHINWVRQAPGQRLEWMGWIYPGSGYTKYNEKFKVRVTLTRDTSASTAYMELSSLRSEDTAVYFCARSGIYHYVSSYYFDHWGKGTTVTVSS
VL: DIQMTQSPSTLSASVGDRVTITCKASQDVGTAVAWYQQKPGKSPKLLIYWASTRHTGVPSRFSGSGSGTEFTLTISSVQPDDFATYFCQQYSSYTFGGGTKVEIK
notes: also called BG87P-B24
B14: BG87P-m8 (antibody, V domains shown)
VH: QIQLVQSGAEVKKPGASVKVSCKASGYSFTDYAINWVRQAPGQRLEWMGWIYPGSGYTKYNEKFKVRVTLTVDTSASTAYMELSSLRSEDTAVYFCARSGIYHYVSSYYFDHWGKGTTVTVSS
VL: DIQMTQSPSTLSASVGDRVTITCKASQDVGTAVAWYQQKPGKSPKLLIYWASTRHTGVPSRFSGSGSGTEFTLTISSVQPDDFATYFCQQYSSYTFGGGTKVEIK
notes: Variant of BG87P-Bz0 with H33A
B15: BG87P-Bz6 (antibody, V domains shown)
VH: QIQLVQSGAEVKKPGASVKVSCKASGYSFTDYHINWVRQAPGQRLEWMGWIYPGSGYTKYNEKFKVRVTLTVDTSASTAYMELSSLRSEDTAVYFCARSGIYHYVSSYYFDHWGKGTTVTVSS
VL: DIQMTQSPSTLSASVGDRVTITCKASQDVGTAVAWYQQKPGKAPKLLIYWASTRHTGVPSRFSGSGSGTEFTLTISSVQPDDFATYFCQQYSSYTFGGGTKVEIK
notes: also called BG87P-B26

This test addresses T1, human claudin 6 (CLDN6). Nature of the test: flow cytometry, HEK293T-human CLDN6 cells; ratio to chBG87P. The protocol: For affinity determination, CLDN6 over-expressing HEK293T cells and cancer cell line PA-1 which express high levels of human CLDN6 were used to evaluate the binding activity of BG87P related engineering variants. Live cells were seeded in 96-well plate, and were incubated with a series of dilutions of chBG87P and engineered variants thereof. Goat anti-human IgG was used as second antibody to detect antibody binding to the cell surface. EC50 values for dose-dependent binding to CLDN6 expressing cell lines were determined by fitting the dose-response data to the four-parameter logistic model with GraphPad Prism. Cell binding activity of 1st round of BG87P humanization variants against HEK293T/human CLDN6 were compared to chBG87P and shown in FIG. 1A.
On to B1, for which the “Emax ratio to BG87P” value came out at 1.08.
For B2, the “Emax ratio to BG87P” value came out at 1.05.
The value for B3 was 0.56; that for B4 was 0.52; that for B5 was 0.44.
To B6 belongs 0.62; to B7, 0.66; to B8, 0.73.
In the case of B9, the “Emax ratio to BG87P” value is 0.81.
The value for B10 was 0.7; that for B11 was 0.56.
The value for B12 was 0.68; that for B13 was 0.57.
In the case of B14, the “Emax ratio to BG87P” value was 0.28.
The value for B15 was 0.75.
